Experimental data taken from patent publication US8293494B2, “Tri-demethylation-capable protein complex, method of its preparation and its use” (Universitatsklinikum Freiburg, priority 2007, dated 2012).
Residue numbers refer to the chain shown, from its start. Numbers in names are those of the source.

Test system: H3K9 on core histones or nucleosomes from HeLa cells
Assay: In vitro demethylation assay
Type: biochemical
Details: 5 hours at 37° C., Western blot; for demethylation of trimethyl H3K9: core histones and nucleosomes from HeLa cells
Protocol: FIG. 2 JMJD2C interacts with chromatin and demethylates H3K9. LNCaP cells were incubated with or without the AR agonist R1881 (a, b), and transfected with stealth RNAi (b). ChIP or Re-ChIP was performed with the indicated antibodies. The precipitated chromatin was amplified by PCR using primers flanking the promoter region (ARE I+II) and the enhancer region (ARE III) of the PSA gene, the promoter region (ARE) of the KLK2 gene, or the promoters of the unrelated GAPDH and U6 genes. Western blot analysis (b, lower right panel) verified the specific siRNA-mediated knockdown of JMJD2C. c, Core histories or nucleosomes from HeLa cells were incubated with recombinant JMJD2C (aa 12-349) or mutant JMJD2C H190A (aa 12-349). Western blots were decorated with the indicated antibodies against α-mono-, α-di-, or α-trimethyl H3K9.
FIG. 6: The integrity of core histones and nucleosomes is maintained during the demethylation assay. Core histones or nucleosomes from HeLa cells were incubated with recombinant JMJD2C (aa 12-349) or mutant JMJD2C H190A (aa 12-349). Western blots were decorated with α-H3 antibody.
The demethylation assays were performed as described^4. His-tagged proteins were incubated for 5 hours at 37° C. in demethylation buffer containing 50 mM HEPES-KOH pH 8.0, 2 mM ascorbate, 100 μM Fe(NH4)2(SO4)2, 1 mM α-ketoglutarate with 1 μg of nucleosomes or core histones purified from HeLa cells^22. The reaction mixture was analysed by SDS-PAGE followed by Western blotting using antibodies as indicated.

B1: JMJD2C: Recombinantly expressed and purified His-tagged JMJD2C (aa 12-349), a JMJC domain-containing histone demethylase (protein, UniProt Q9H3R0 12-349, looked up, fragment)
chain: PSCKIMTFRPSMEEFREFNKYLAYMESKGAHRAGLAKVIPPKEWKPRQCYDDIDNLLIPAPIQQMVTGQSGLFTQYNIQKKAMTVKEFRQLANSGKYCTPRYLDYEDLERKYWKNLTFVAPIYGADINGSIYDEGVDEWNIARLNTVLDVVEEECGISIEGVNTPYLYFGMWKTTFAWHTEDMDLYSINYLHFGEPKSWYAIPPEHGKRLERLAQGFFPSSSQGCDAFLRHKMTLISPSVLKKYGIPFDKITQEAGEFMITFPYGYHAGFNHGFNCAESTNFATVRWIDYGKVAKLCTCRKDMVKISMDIFVRKFQPDRYQLWKQGKDIYTIDHTKPT
modifications: His-tag
notes: Recombinantly expressed and purified His-tagged JMJD2C (aa 12-349), a JMJC domain-containing histone demethylase
Question: B1 was tested. Which “methylation status of mono- and dimethyl H3K9” value did it give?
Answer: not altered

Question: And the “demethylation of trimethyl H3K9” value?
Answer: very efficiently demethylates

B2: JMJD2C H190A: enzymatically impaired mutant JMJD2C H190A (aa 12-349) (protein)
chain: B1 chain with H179A
modifications: left off: small tags and cut ends
Question: Which “demethylation of trimethyl H3K9” value does the source give for B2 here?
Answer: fails to demethylate
